For the assay, the target named is WISp39 (UniProt Q9UIM3). As to the kind of experiment: anti-GFP co-IP, Western blot. The settings on record: reference: wild type; sites S2.

Consider Coronin 1B (from UniProt Q9BR76) S2A, for which the “binding against the reference” value was “lost”.
